Numbered stars: 1 amine (or outer) side, 2 acyl side, 3 side chain; on linkers, the order of the positions; unused ones are H or OH. Bridge positions count the residues as written; N and C are the ends. Side chains are listed from the residue outwards. Ends that are not written are not given here. * marks the point of attachment. C20 diacid = O=C(O)CCCCCCCCCCCCCCCCCCC(=O)*; γGlu = O=C(O)[C@H](CCC(=O)[*:2])N[*:1]
T1: human amylin 3(a) receptor (human calcitonin receptor co-expressed with RAMP-3) (human, UniProt P30988 25-474; O60896 24-148, limits assumed)
T1 sequence (looked up) 1: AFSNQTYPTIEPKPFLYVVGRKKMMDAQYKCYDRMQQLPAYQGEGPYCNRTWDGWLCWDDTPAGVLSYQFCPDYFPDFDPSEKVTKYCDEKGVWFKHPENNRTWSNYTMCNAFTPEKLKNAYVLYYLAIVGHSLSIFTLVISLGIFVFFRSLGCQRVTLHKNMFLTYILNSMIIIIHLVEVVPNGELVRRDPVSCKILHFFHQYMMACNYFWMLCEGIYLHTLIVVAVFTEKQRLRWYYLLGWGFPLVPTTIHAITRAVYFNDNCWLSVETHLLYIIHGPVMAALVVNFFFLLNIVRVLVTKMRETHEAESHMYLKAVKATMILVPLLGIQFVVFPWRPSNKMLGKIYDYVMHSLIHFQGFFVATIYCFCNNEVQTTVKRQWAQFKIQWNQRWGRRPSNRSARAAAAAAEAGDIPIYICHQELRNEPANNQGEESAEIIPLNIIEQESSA
T1 sequence (looked up) 2: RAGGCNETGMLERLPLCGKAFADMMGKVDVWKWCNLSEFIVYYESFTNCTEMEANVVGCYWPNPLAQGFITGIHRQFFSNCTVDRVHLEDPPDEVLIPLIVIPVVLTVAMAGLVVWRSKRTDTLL


Molecular target: T1, human amylin 3(a) receptor (human …)
Assay: cell-based or functional assay

Ratio hCT/hAmylin funct. (hCTR EC50 over hAmylin-R EC50) | hAmylin-R funct. EC50 (pM) | Binder
15.3 | 351 pM | K([γGlu-C20 diacid])CNTATCATQRLANFLRHSSPNFGAIPSSTNVGSHTY-NH2 (disulfide 2-7; N-terminus assumed; SMILES CC[C@H](C)[C@H](NC(=O)[C@H](C)NC(=O)CNC(=O)[C@H](Cc1ccccc1)NC(=O)[C@H](CC(N)=O)NC(=O)[C@@H]1CCCN1C(=O)[C@H](CO)NC(=O)[C@H](CO)NC(=O)[C@H](Cc1c[nH]cn1)NC(=O)[C@H](CCCNC(=N)N)NC(=O)[C@H](CC(C)C)NC(=O)[C@H](Cc1ccccc1)NC(=O)[C@H](CC(N)=O)NC(=O)[C@H](C)NC(=O)[C@H](CC(C)C)NC(=O)[C@H](CCCNC(=N)N)NC(=O)[C@H](CCC(N)=O)NC(=O)[C@@H](NC(=O)[C@H](C)NC(=O)[C@@H]1CSSC[C@H](NC(=O)[C@@H](N)CCCCNC(=O)CC[C@H](NC(=O)CCCCCCCCCCCCCCCCCCC(=O)O)C(=O)O)C(=O)N[C@@H](CC(N)=O)C(=O)N[C@@H]([C@@H](C)O)C(=O)N[C@@H](C)C(=O)N[C@@H]([C@@H](C)O)C(=O)N1)[C@@H](C)O)C(=O)N1CCC[C@H]1C(=O)N[C@@H](CO)C(=O)N[C@@H](CO)C(=O)N[C@H](C(=O)N[C@@H](CC(N)=O)C(=O)N[C@H](C(=O)NCC(=O)N[C@@H](CO)C(=O)N[C@@H](Cc1c[nH]cn1)C(=O)N[C@H](C(=O)N[C@@H](Cc1ccc(O)cc1)C(N)=O)[C@@H](C)O)C(C)C)[C@@H](C)O, also called compound 60) [N^ε1-[(4S)-4-carboxy-4-(19-carboxynonadecanoylamino)butanoyl]-[Arg17,Pro21,Pro27,His35]-h-amylin]
15 | 364 pM | K([γGlu-C20 diacid])CNTATCATQRLANFLRHSSPNFGAIPSSTNVGSKTY-NH2 (disulfide 2-7; N-terminus assumed; SMILES CC[C@H](C)[C@H](NC(=O)[C@H](C)NC(=O)CNC(=O)[C@H](Cc1ccccc1)NC(=O)[C@H](CC(N)=O)NC(=O)[C@@H]1CCCN1C(=O)[C@H](CO)NC(=O)[C@H](CO)NC(=O)[C@H](Cc1c[nH]cn1)NC(=O)[C@H](CCCNC(=N)N)NC(=O)[C@H](CC(C)C)NC(=O)[C@H](Cc1ccccc1)NC(=O)[C@H](CC(N)=O)NC(=O)[C@H](C)NC(=O)[C@H](CC(C)C)NC(=O)[C@H](CCCNC(=N)N)NC(=O)[C@H](CCC(N)=O)NC(=O)[C@@H](NC(=O)[C@H](C)NC(=O)[C@@H]1CSSC[C@H](NC(=O)[C@@H](N)CCCCNC(=O)CC[C@H](NC(=O)CCCCCCCCCCCCCCCCCCC(=O)O)C(=O)O)C(=O)N[C@@H](CC(N)=O)C(=O)N[C@@H]([C@@H](C)O)C(=O)N[C@@H](C)C(=O)N[C@@H]([C@@H](C)O)C(=O)N1)[C@@H](C)O)C(=O)N1CCC[C@H]1C(=O)N[C@@H](CO)C(=O)N[C@@H](CO)C(=O)N[C@H](C(=O)N[C@@H](CC(N)=O)C(=O)N[C@H](C(=O)NCC(=O)N[C@@H](CO)C(=O)N[C@@H](CCCCN)C(=O)N[C@H](C(=O)N[C@@H](Cc1ccc(O)cc1)C(N)=O)[C@@H](C)O)C(C)C)[C@@H](C)O, also called compound 35) [N^ε1-[(4S)-4-carboxy-4-(19-carboxynonadecanoylamino)butanoyl]-[Arg17,Pro21,Pro27,Lys35]-h-amylin]

From US20140087995A1 (published 2014)
